Key:
[1] = molecular target: S. mutans CLC^F F-/H+ antiporter encoded by ORF 1289 (Streptococcus mutans UA159); test: cross-linking; 0.2 mg/mL purified protein in detergent (DM) with 0.125% glutaraldehyde (~500-fold molar excess) at room temperature for the indicated times, quenched with 0.15 M Tris-HCl pH 7.5, SDS-PAGE; monomer and dimer bands
[2] = molecular target: S. mutans CLC^F homologue encoded by ORF 1290 (Streptococcus mutans UA159); test: as above

Substance | stoichiometry N [1] | stoichiometry N [2]
S. mutans CLC^F F-/H+ antiporter encoded by ORF 1289 (natural protein) | 2 | 
S. mutans CLC^F homologue encoded by ORF 1290 (natural protein) |  | 2

From PMC11077948
